According to patent US20240124553A1:

Assays:
Assay in all cases: flow cytometry, transfected 293T cells
[1] = target: CHIKV E2-E1 envelope glycoproteins (strain S27), E2 mutant P133A (chikungunya virus strain S27) (UniProt Q8JUX5)
[2] = target: CHIKV E2-E1 envelope glycoproteins (strain S27), E2 mutant C105A (chikungunya virus strain S27) (UniProt Q8JUX5)
[3] = target: CHIKV E2-E1 envelope glycoproteins (strain S27), E2 mutant T116A (chikungunya virus strain S27) (UniProt Q8JUX5)
[4] = target: CHIKV E2-6K-E1 envelope proteins (strain S27) with E2 G186A (Chikungunya virus strain S27) (UniProt Q8JUX5)
[5] = target: CHIKV E2-6K-E1 envelope proteins (strain S27) with E2 V192A (Chikungunya virus strain S27) (UniProt Q8JUX5)
[6] = target: CHIKV E2-6K-E1 envelope proteins (strain S27) with E2 N193A (Chikungunya virus strain S27) (UniProt Q8JUX5)
[7] = target: CHIKV E2-6K-E1 envelope proteins (strain S27) with E2 G209A (Chikungunya virus strain S27) (UniProt Q8JUX5)
[8] = target: CHIKV E2-6K-E1 envelope proteins (strain S27) with E2 G205A (Chikungunya virus strain S27) (UniProt Q8JUX5)
[9] = target: CHIKV E2-6K-E1 envelope proteins (strain S27) with E2 S194A (Chikungunya virus strain S27) (UniProt Q8JUX5)
[10] = target: CHIKV E2-6K-E1 envelope proteins (strain S27) with E2 N218A (Chikungunya virus strain S27) (UniProt Q8JUX5)
[11] = target: CHIKV E2-6K-E1 envelope proteins (strain S27) with E2 T212A (Chikungunya virus strain S27) (UniProt Q8JUX5)
[12] = target: CHIKV E2-6K-E1 envelope proteins (strain S27) with E2 N219A (Chikungunya virus strain S27) (UniProt Q8JUX5)
[13] = target: CHIKV E2-6K-E1 envelope proteins (strain S27) with E2 L210A (Chikungunya virus strain S27) (UniProt Q8JUX5)
[14] = target: CHIKV E2-6K-E1 envelope proteins (strain S27) with E2 L180A (Chikungunya virus strain S27) (UniProt Q8JUX5)
[15] = target: CHIKV E2-6K-E1 envelope proteins (strain S27) with E2 Q183A (Chikungunya virus strain S27) (UniProt Q8JUX5)
[16] = target: CHIKV E2-6K-E1 envelope proteins (strain S27) with E2 L181A (Chikungunya virus strain S27) (UniProt Q8JUX5)
[17] = target: CHIKV E2-6K-E1 envelope proteins (strain S27) with E2 K200A (Chikungunya virus strain S27) (UniProt Q8JUX5)
[18] = target: CHIKV E2-6K-E1 envelope proteins (strain S27) with E2 Q184A (Chikungunya virus strain S27) (UniProt Q8JUX5)
[19] = target: CHIKV E2-6K-E1 envelope proteins (strain S27) with E2 S185A (Chikungunya virus strain S27) (UniProt Q8JUX5)
[20] = target: CHIKV E2-6K-E1 envelope proteins (strain S27) with E2 I211A (Chikungunya virus strain S27) (UniProt Q8JUX5)
[21] = target: CHIKV E2-6K-E1 envelope proteins (strain S27) with E2 V216A (Chikungunya virus strain S27) (UniProt Q8JUX5)
[22] = target: CHIKV E2-6K-E1 envelope proteins (strain S27) with E2 V197A (Chikungunya virus strain S27) (UniProt Q8JUX5)
[23] = target: CHIKV E2-6K-E1 envelope proteins (strain S27) with E2 S206A (Chikungunya virus strain S27) (UniProt Q8JUX5)
[24] = target: CHIKV E2-6K-E1 envelope proteins (strain S27) with E2 K189A (Chikungunya virus strain S27) (UniProt Q8JUX5)
[25] = target: CHIKV E2-6K-E1 envelope proteins (strain S27) with E2 G204A (Chikungunya virus strain S27) (UniProt Q8JUX5)
[26] = target: CHIKV E2-6K-E1 envelope proteins (strain S27) with E2 N187A (Chikungunya virus strain S27) (UniProt Q8JUX5)
[27] = target: CHIKV E2-6K-E1 envelope proteins (strain S27) with E2 C220A (Chikungunya virus strain S27) (UniProt Q8JUX5)
[28] = target: CHIKV E2-6K-E1 envelope proteins (strain S27) with E2 S182A (Chikungunya virus strain S27) (UniProt Q8JUX5)
[29] = target: CHIKV E2-6K-E1 envelope proteins (strain S27) with E2 Y199A (Chikungunya virus strain S27) (UniProt Q8JUX5)
[30] = target: CHIKV E2-6K-E1 envelope proteins (strain S27) with E2 R198A (Chikungunya virus strain S27) (UniProt Q8JUX5)
[31] = target: CHIKV E2-6K-E1 envelope proteins (strain S27) with E2 N202A (Chikungunya virus strain S27) (UniProt Q8JUX5)
[32] = target: CHIKV E2-6K-E1 envelope proteins (strain S27) with E2 C203A (Chikungunya virus strain S27) (UniProt Q8JUX5)

What does the source list for CHIKV mAb CHKV-88 (antibody)?
Binding Reactivity (% WT) [1]: 92.3 % WT; Binding Reactivity (% WT) [2]: -0.1 % WT; Binding Reactivity (% WT) [3]: 110 % WT

How did the Binding Reactivity (% WT) [1] turn out when CHIKV mAb C9 (antibody) was run?
Its Binding Reactivity (% WT) is 87.2 % WT.

What about the Binding Reactivity (% WT) [2] of the same substance?
The Binding Reactivity (% WT) was -0.2 % WT.

What about the Binding Reactivity (% WT) [3] of the same substance?
Its Binding Reactivity (% WT) is 98.2 % WT.

With CHIKV mAb IM-CKV065 (antibody) as the substance, how does the Binding Reactivity (% WT) [1] read?
The Binding Reactivity (% WT) was 66.6 % WT.

And the Binding Reactivity (% WT) [2]?
The Binding Reactivity (% WT) was -2.9 % WT.

What about the Binding Reactivity (% WT) [3] of the same substance?
Its Binding Reactivity (% WT) is 103 % WT.

Which results are given for “Mxra8-Fc (mouse Mxra8 extracellular domain fused to mouse IgG2b Fc) (Fc fusion)”?
Binding Reactivity (% WT) [4]: 108 % WT; Binding Reactivity (% WT) [5]: 56.9 % WT; Binding Reactivity (% WT) [6]: 120 % WT; Binding Reactivity (% WT) [7]: 77.9 % WT; Binding Reactivity (% WT) [1]: 81.3 % WT; Binding Reactivity (% WT) [8]: 78.9 % WT; Binding Reactivity (% WT) [9]: 87 % WT; Binding Reactivity (% WT) [10]: 56.5 % WT; Binding Reactivity (% WT) [2]: -0.1 % WT; Binding Reactivity (% WT) [11]: 94.6 % WT; Binding Reactivity (% WT) [12]: 66.6 % WT; Binding Reactivity (% WT) [13]: 70.1 % WT; Binding Reactivity (% WT) [14]: 57 % WT; Binding Reactivity (% WT) [3]: 31.2 % WT; Binding Reactivity (% WT) [15]: 96.1 % WT; Binding Reactivity (% WT) [16]: 53.2 % WT; Binding Reactivity (% WT) [17]: 75.5 % WT; Binding Reactivity (% WT) [18]: 130 % WT; Binding Reactivity (% WT) [19]: 88.1 % WT; Binding Reactivity (% WT) [20]: 81.1 % WT; Binding Reactivity (% WT) [21]: 82.9 % WT; Binding Reactivity (% WT) [22]: 33.9 % WT; Binding Reactivity (% WT) [23]: 52.2 % WT; Binding Reactivity (% WT) [24]: 156 % WT; Binding Reactivity (% WT) [25]: 76.7 % WT; Binding Reactivity (% WT) [26]: 90.5 % WT; Binding Reactivity (% WT) [27]: 60.2 % WT; Binding Reactivity (% WT) [28]: 70.9 % WT; Binding Reactivity (% WT) [29]: 15.9 % WT; Binding Reactivity (% WT) [30]: 74 % WT; Binding Reactivity (% WT) [31]: 80.6 % WT; Binding Reactivity (% WT) [32]: 10.4 % WT

What does the source list for CHIKV mAb IM-CKV063 (antibody)?
Binding Reactivity (% WT) [1]: 73.9 % WT; Binding Reactivity (% WT) [2]: 0.4 % WT; Binding Reactivity (% WT) [3]: 104 % WT
